Reference: patent publication US6787329

Test system: T1, TMR-Val-Pro-Arg-Gly-Lys-TMR
T1 sequence: XPRGX

## trypsin
  average fluorescence ratio w/ trypsin : w/o trypsin, excitation 360 nm, emission 570-585 nm: 26 fold
  average fluorescence ratio w/ trypsin : w/o trypsin, excitation 522 nm, emission 570-585 nm: 28 fold
  average fluorescence ratio w/ trypsin : w/o trypsin, excitation 530 nm, emission 570-585 nm: 27 fold
  average fluorescence ratio w/ trypsin : w/o trypsin, excitation 553 nm, emission 570-585 nm: 25 fold
  fluorescence ratio w/ trypsin : w/o trypsin, excitation 360 nm, emission 570 nm: 27 fold
  fluorescence ratio w/ trypsin : w/o trypsin, excitation 360 nm, emission 571 nm: 25 fold
  fluorescence ratio w/ trypsin : w/o trypsin, excitation 360 nm, emission 572 nm: 25 fold
  fluorescence ratio w/ trypsin : w/o trypsin, excitation 360 nm, emission 573 nm: 25 fold
  fluorescence ratio w/ trypsin : w/o trypsin, excitation 360 nm, emission 574 nm: 27 fold
  fluorescence ratio w/ trypsin : w/o trypsin, excitation 360 nm, emission 575 nm: 24 fold
  fluorescence ratio w/ trypsin : w/o trypsin, excitation 360 nm, emission 576 nm: 24 fold
  fluorescence ratio w/ trypsin : w/o trypsin, excitation 360 nm, emission 577 nm: 26 fold
  fluorescence ratio w/ trypsin : w/o trypsin, excitation 360 nm, emission 578 nm: 26 fold
  fluorescence ratio w/ trypsin : w/o trypsin, excitation 360 nm, emission 579 nm: 25 fold
  fluorescence ratio w/ trypsin : w/o trypsin, excitation 360 nm, emission 580 nm: 27 fold
  fluorescence ratio w/ trypsin : w/o trypsin, excitation 360 nm, emission 581 nm: 27 fold
  fluorescence ratio w/ trypsin : w/o trypsin, excitation 360 nm, emission 582 nm: 26 fold
  fluorescence ratio w/ trypsin : w/o trypsin, excitation 360 nm, emission 583 nm: 28 fold
  fluorescence ratio w/ trypsin : w/o trypsin, excitation 360 nm, emission 584 nm: 24 fold
  fluorescence ratio w/ trypsin : w/o trypsin, excitation 360 nm, emission 585 nm: 27 fold
  fluorescence ratio w/ trypsin : w/o trypsin, excitation 522 nm, emission 570 nm: 29 fold
  fluorescence ratio w/ trypsin : w/o trypsin, excitation 522 nm, emission 571 nm: 27 fold
  fluorescence ratio w/ trypsin : w/o trypsin, excitation 522 nm, emission 572 nm: 29 fold
  fluorescence ratio w/ trypsin : w/o trypsin, excitation 522 nm, emission 573 nm: 29 fold
  fluorescence ratio w/ trypsin : w/o trypsin, excitation 522 nm, emission 574 nm: 27 fold
  fluorescence ratio w/ trypsin : w/o trypsin, excitation 522 nm, emission 575 nm: 27 fold
  fluorescence ratio w/ trypsin : w/o trypsin, excitation 522 nm, emission 576 nm: 29 fold
  fluorescence ratio w/ trypsin : w/o trypsin, excitation 522 nm, emission 577 nm: 27 fold
  fluorescence ratio w/ trypsin : w/o trypsin, excitation 522 nm, emission 578 nm: 28 fold
  fluorescence ratio w/ trypsin : w/o trypsin, excitation 522 nm, emission 579 nm: 27 fold
  fluorescence ratio w/ trypsin : w/o trypsin, excitation 522 nm, emission 580 nm: 29 fold
  fluorescence ratio w/ trypsin : w/o trypsin, excitation 522 nm, emission 581 nm: 27 fold
  fluorescence ratio w/ trypsin : w/o trypsin, excitation 522 nm, emission 582 nm: 29 fold
  fluorescence ratio w/ trypsin : w/o trypsin, excitation 522 nm, emission 583 nm: 28 fold
  fluorescence ratio w/ trypsin : w/o trypsin, excitation 522 nm, emission 584 nm: 27 fold
  fluorescence ratio w/ trypsin : w/o trypsin, excitation 522 nm, emission 585 nm: 28 fold
  fluorescence ratio w/ trypsin : w/o trypsin, excitation 530 nm, emission 570 nm: 28 fold
  fluorescence ratio w/ trypsin : w/o trypsin, excitation 530 nm, emission 571 nm: 28 fold
  fluorescence ratio w/ trypsin : w/o trypsin, excitation 530 nm, emission 572 nm: 27 fold
  fluorescence ratio w/ trypsin : w/o trypsin, excitation 530 nm, emission 573 nm: 28 fold
  fluorescence ratio w/ trypsin : w/o trypsin, excitation 530 nm, emission 574 nm: 27 fold
  fluorescence ratio w/ trypsin : w/o trypsin, excitation 530 nm, emission 575 nm: 28 fold
  fluorescence ratio w/ trypsin : w/o trypsin, excitation 530 nm, emission 576 nm: 27 fold
  fluorescence ratio w/ trypsin : w/o trypsin, excitation 530 nm, emission 577 nm: 28 fold
  fluorescence ratio w/ trypsin : w/o trypsin, excitation 530 nm, emission 578 nm: 27 fold
  fluorescence ratio w/ trypsin : w/o trypsin, excitation 530 nm, emission 579 nm: 26 fold
  fluorescence ratio w/ trypsin : w/o trypsin, excitation 530 nm, emission 580 nm: 27 fold
  fluorescence ratio w/ trypsin : w/o trypsin, excitation 530 nm, emission 581 nm: 27 fold
  fluorescence ratio w/ trypsin : w/o trypsin, excitation 530 nm, emission 582 nm: 27 fold
  fluorescence ratio w/ trypsin : w/o trypsin, excitation 530 nm, emission 583 nm: 27 fold
  fluorescence ratio w/ trypsin : w/o trypsin, excitation 530 nm, emission 584 nm: 27 fold
  fluorescence ratio w/ trypsin : w/o trypsin, excitation 530 nm, emission 585 nm: 27 fold
  fluorescence ratio w/ trypsin : w/o trypsin, excitation 553 nm, emission 570 nm: 25 fold
  fluorescence ratio w/ trypsin : w/o trypsin, excitation 553 nm, emission 571 nm: 25 fold
  fluorescence ratio w/ trypsin : w/o trypsin, excitation 553 nm, emission 572 nm: 25 fold
  fluorescence ratio w/ trypsin : w/o trypsin, excitation 553 nm, emission 573 nm: 25 fold
  fluorescence ratio w/ trypsin : w/o trypsin, excitation 553 nm, emission 574 nm: 25 fold
  fluorescence ratio w/ trypsin : w/o trypsin, excitation 553 nm, emission 575 nm: 24 fold
  fluorescence ratio w/ trypsin : w/o trypsin, excitation 553 nm, emission 576 nm: 25 fold
  fluorescence ratio w/ trypsin : w/o trypsin, excitation 553 nm, emission 577 nm: 25 fold
  fluorescence ratio w/ trypsin : w/o trypsin, excitation 553 nm, emission 578 nm: 25 fold
  fluorescence ratio w/ trypsin : w/o trypsin, excitation 553 nm, emission 579 nm: 24 fold
  fluorescence ratio w/ trypsin : w/o trypsin, excitation 553 nm, emission 580 nm: 25 fold
  fluorescence ratio w/ trypsin : w/o trypsin, excitation 553 nm, emission 581 nm: 24 fold
  fluorescence ratio w/ trypsin : w/o trypsin, excitation 553 nm, emission 582 nm: 25 fold
  fluorescence ratio w/ trypsin : w/o trypsin, excitation 553 nm, emission 583 nm: 24 fold
  fluorescence ratio w/ trypsin : w/o trypsin, excitation 553 nm, emission 584 nm: 25 fold
  fluorescence ratio w/ trypsin : w/o trypsin, excitation 553 nm, emission 585 nm: 25 fold

## trypsin-like enzyme of Vibrio parahaemolyticus
  increase in fluorescence on cleavage of the substrate: Cleavage by the trypsin-like enzyme produced an increase in fluorescence.
